In article PMC7905068, “Bornyl Diphosphate Synthase From Cinnamomum burmanni and Its Application for (+)-Borneol Biosynthesis in Yeast” (Frontiers in Bioengineering and Biotechnology, 2021):

Substrate: CC(C)=CCC/C(C)=C/COP(=O)(O)OP(=O)(O)O
Assay: GC-MS of products after CIAP dephosphorylation, Michaelis-Menten fit
Format: biochemical, Cinnamomum burmanni
Conditions: 50 mM HEPES pH 7.2, 10 mM MgCl2, 5 mM DTT, 30 °C, 3 min, 0.125-150 μM GPP

B1: CbTPS1 (Cinnamomum burmanni) (protein)
chain: MALQMTVPFLSSFLPNPRHRPTAHGFIPQERVSKHISCSTTTPTYSTTVPRRSGNYKPSIWDYDFVQSLVSDYKVEAHGTRVEKLKEVVKNLLKETDSSLAQMELIDSLHRLGVRWLFENEIKQVLYTVSSDNTSIEMKKDLHAVSTRFRLLRQHGFKVSTDVFNDFEDEKGCFKPSLSMDIKGMLSLYEASHLAFQGETILDEARAFTHAHLMGIKENIDPIIHKKVEHALDMPLHWRLEKLEARWYMDMYMREEGMNSSLLELAMLHFNIVQATFQTNLKSLSRWWKDLGLGEQLSFSRDRLVECFFWAAAMTSEPQFGRCQEAVAKVVQLTTTIDDIYDVYGTVDELELFTNAVDRWDLEAMEQLPEYMKTCFLALYNSINEIGYGILKEQGRNVIPYLRNAWTELCKAYLVEAKWYSSGYTPMLEEFLQTSWISVGSLPMQTYAFALLGQNLAPESCDFAEQISDILPLAGMLIRFPDDLGTSLDELKRGDVPKSIQCYMHEAGVTEDVARDHIMGLFRETWKKLNEYLVESSIPHAFIDQAMNLGRVSYCTYKHGDGFSDGFGDPGSQEKKMYMSLFVEPIQVDEAKGISFCVDGGYA
For B1, the Km was 5.11 ± 1.70 µM and the kcat was 0.01 s^–1.
